In WO2006121159A1 (dated 2006):

Target: T1, CD10 (membrane fraction of the CD10-high-expressing human small cell lung cancer cell line SBC-3) (human, UniProt P08473 2-750)
T1 construct: whole, on cells; The antigen was a crude cell membrane fraction, not purified CD10 and not intact cells; also called CALLA; neutral endopeptidase
Test: ELISA; plate coated with membrane fraction of CD10-high SBC-3 cells; peroxidase-labelled anti-human IgG(H&L); OD415

T1 sequence (P08473 2-750): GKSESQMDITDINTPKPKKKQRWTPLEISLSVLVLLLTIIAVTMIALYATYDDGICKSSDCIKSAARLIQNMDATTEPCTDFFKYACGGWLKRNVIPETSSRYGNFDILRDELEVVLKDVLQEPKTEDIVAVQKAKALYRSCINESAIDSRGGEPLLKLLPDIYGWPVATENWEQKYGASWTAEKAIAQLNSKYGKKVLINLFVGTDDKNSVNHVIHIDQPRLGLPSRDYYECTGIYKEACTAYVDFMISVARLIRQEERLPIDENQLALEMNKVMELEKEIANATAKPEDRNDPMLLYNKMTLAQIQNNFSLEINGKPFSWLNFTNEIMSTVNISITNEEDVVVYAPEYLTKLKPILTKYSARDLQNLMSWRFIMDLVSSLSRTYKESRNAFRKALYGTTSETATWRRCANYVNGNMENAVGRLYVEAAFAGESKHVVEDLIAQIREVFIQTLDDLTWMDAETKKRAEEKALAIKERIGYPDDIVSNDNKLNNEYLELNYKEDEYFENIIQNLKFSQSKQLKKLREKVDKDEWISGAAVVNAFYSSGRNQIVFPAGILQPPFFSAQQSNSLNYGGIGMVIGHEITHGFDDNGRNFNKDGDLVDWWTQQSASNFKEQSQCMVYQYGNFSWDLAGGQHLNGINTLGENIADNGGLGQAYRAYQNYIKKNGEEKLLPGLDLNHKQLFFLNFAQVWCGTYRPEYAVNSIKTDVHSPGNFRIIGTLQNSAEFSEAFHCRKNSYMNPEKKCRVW

binding result	Binder
binds	MS705/HV0LV9 antibody (anti-CD10 CDR-grafted antibody obtained from the HV0LV9MS705 strain, FERM BP-10099) (antibody, V domains shown, Whole antibody expressed from pKANTEX3061HV0LV9 (human constant regions)) VH: EVQLVESGGGVVQPGRSLRLSCAASGFTFSSFGMHWVRQAPGKGLEWVAYISGGSYTIYYADTVKGRFTISRDNSKNTLYLQMNSLRAEDTAVYYCARSYGNFWYFDVWGQGTTVTVSS VL: DIVMTQSPDSLAVSLGERATIACSVSSSISSSNLHWYQQKPGQSPKPWIYGTSNLASGVPVRFSGSGSGTSYFLTISSLQAEDVATYYCQQWSSYPLTFGQGTKVEIKR
binds	MS705/HV0LV0 antibody (anti-CD10 CDR-grafted antibody obtained from the HV0LV0MS705 strain) (antibody, V domains shown, Whole antibody expressed from pKANTEX3061HV0LV0 (human constant regions from the anti-CD10 chimeric antibody expression vector)) VH: EVQLVESGGGVVQPGRSLRLSCAASGFTFSSFGMHWVRQAPGKGLEWVAYISGGSYTIYYADTVKGRFTISRDNSKNTLYLQMNSLRAEDTAVYYCARSYGNFWYFDVWGQGTTVTVSS VL: DIVMTQSPDSLAVSLGERATINCSVSSSISSSNLHWYQQKPGQPPKLLIYGTSNLASGVPDRFSGSGSGTDFTLTISSLQAEDVAVYYCQQWSSYPLTFGQGTKVEIKR
binds	MS705/HV2LV9 antibody (anti-CD10 CDR-grafted antibody obtained from the HV2LV9MS705 strain) (antibody, V domains shown, Whole antibody expressed from pKANTEX3061HV2LV9 (human constant regions)) VH: EVQLVESGGGVVQPGRSLRLSCAASGFTFSSFGMHWVRQAPEKGLEWVAYISGGSYTIYYADTVKGRFTISRDNSKNTLYLQMNSLRAEDTAVYYCASSYGNFWYFDVWGQGTTVTVSS VL: DIVMTQSPDSLAVSLGERATIACSVSSSISSSNLHWYQQKPGQSPKPWIYGTSNLASGVPVRFSGSGSGTSYFLTISSLQAEDVATYYCQQWSSYPLTFGQGTKVEIKR
